Reference: paper PMC11215335

Target: single-chain Fv antibody fragment 18B7
Experiment: not stated; soluble scFv produced in the periplasm of E. coli (Fig. S2A)

Chain of single-chain Fv antibody fragment 18B7 (scFv) (VH): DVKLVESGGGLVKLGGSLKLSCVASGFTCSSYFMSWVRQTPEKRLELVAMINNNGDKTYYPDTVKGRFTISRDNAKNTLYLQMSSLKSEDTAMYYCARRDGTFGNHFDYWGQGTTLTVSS
Chain of single-chain Fv antibody fragment 18B7 (scFv) (VL): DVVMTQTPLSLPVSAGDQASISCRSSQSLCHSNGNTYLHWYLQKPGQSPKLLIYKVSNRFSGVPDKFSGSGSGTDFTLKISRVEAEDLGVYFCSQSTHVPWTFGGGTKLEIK

single-chain Fv antibody fragment 18B7 (scFv)
stoichiometry N: 2
